Data set [1] deals with the molecule itself. Briefly: native gel or EMSA; native PAGE, NuPAGE 3–8% Tris-acetate, Tris-glycine running buffer, stained with InstantBlue; purified α2M after storage (4°C for months, -20°C, rapid freezing, lyophilization). A general note: In EMSA bound probe runs differently from free probe, usually more slowly.
For the next data set, the target named is Creatine phosphokinase (UniProt P00563 1-381). Briefly: cell-based or functional assay.
Chain of Creatine phosphokinase (P00563 whole entry): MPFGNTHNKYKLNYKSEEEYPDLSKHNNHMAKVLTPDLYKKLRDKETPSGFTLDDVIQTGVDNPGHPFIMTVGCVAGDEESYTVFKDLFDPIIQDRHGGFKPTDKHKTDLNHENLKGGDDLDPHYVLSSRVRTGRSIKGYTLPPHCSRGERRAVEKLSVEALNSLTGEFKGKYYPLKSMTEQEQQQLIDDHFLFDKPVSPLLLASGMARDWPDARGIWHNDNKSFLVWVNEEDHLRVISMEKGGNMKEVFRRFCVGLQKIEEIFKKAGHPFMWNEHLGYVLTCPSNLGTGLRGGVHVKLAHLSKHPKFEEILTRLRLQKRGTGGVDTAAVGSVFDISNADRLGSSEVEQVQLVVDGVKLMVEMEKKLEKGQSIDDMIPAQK

B1: Alpha-2-macroglobulin (natural protein, human, UniProt P01023 24-1474, looked up)
chain: SVSGKPQYMVLVPSLLHTETTEKGCVLLSYLNETVTVSASLESVRGNRSLFTDLEAENDVLHCVAFAVPKSSSNEEVMFLTVQVKGPTQEFKKRTTVMVKNEDSLVFVQTDKSIYKPGQTVKFRVVSMDENFHPLNELIPLVYIQDPKGNRIAQWQSFQLEGGLKQFSFPLSSEPFQGSYKVVVQKKSGGRTEHPFTVEEFVLPKFEVQVTVPKIITILEEEMNVSVCGLYTYGKPVPGHVTVSICRKYSDASDCHGEDSQAFCEKFSGQLNSHGCFYQQVKTKVFQLKRKEYEMKLHTEAQIQEEGTVVELTGRQSSEITRTITKLSFVKVDSHFRQGIPFFGQVRLVDGKGVPIPNKVIFIRGNEANYYSNATTDEHGLVQFSINTTNVMGTSLTVRVNYKDRSPCYGYQWVSEEHEEAHHTAYLVFSPSKSFVHLEPMSHELPCGHTQTVQAHYILNGGTLLGLKKLSFYYLIMAKGGIVRTGTHGLLVKQEDMKGHFSISIPVKSDIAPVARLLIYAVLPTGDVIGDSAKYDVENCLANKVDLSFSPSQSLPASHAHLRVTAAPQSVCALRAVDQSVLLMKPDAELSASSVYNLLPEKDLTGFPGPLNDQDNEDCINRHNVYINGITYTPVSSTNEKDMYSFLEDMGLKAFTNSKIRKPKMCPQLQQYEMHGPEGLRVGFYESDVMGRGHARLVHVEEPHTETVRKYFPETWIWDLVVVNSAGVAEVGVTVPDTITEWKAGAFCLSEDAGLGISSTASLRAFQPFFVELTMPYSVIRGEAFTLKATVLNYLPKCIRVSVQLEASPAFLAVPVEKEQAPHCICANGRQTVSWAVTPKSLGNVNFTVSAEALESQELCGTEVPSVPEHGRKDTVIKPLLVEPEGLEKETTFNSLLCPSGGEVSEELSLKLPPNVVEESARASVSVLGDILGSAMQNTQNLLQMPYGCGEQNMVLFAPNIYVLDYLNETQQLTPEIKSKAIGYLNTGYQRQLNYKHYDGSYSTFGERYGRNQGNTWLTAFVLKTFAQARAYIFIDEAHITQALIWLSQRQKDNGCFRSSGSLLNNAIKGGVEDEVTLSAYITIALLEIPLTVTHPVVRNALFCLESAWKTAQEGDHGSHVYTKALLAYAFALAGNQDKRKEVLKSLNEEAVKKDNSVHWERPQKPKAPVGHFYEPQAPSAEVEMTSYVLLAYLTAQPAPTSEDLTSATNIVKWITKQQNAQGGFSSTQDTVVALHALSKYGAATFTRTGKAAQVTIQSSGTFSSKFQVDNNNRLLLQQVSLPELPGEYSMKVTGEGCVYLQTSLKYNILPEKEEFPFALGVQTLPQTCDEPKAHTSFQISLSVSYTGSRSASNMAIVDVKMVSGFIPLKPTVKMLERSNHVSRTEVSSNHVLIYLDKVSNQTLSLFFTVLQDVPVRDLKPAIVKVYDYYETDEFAIAEYNAPCSKDLGNA
notes: alpha-2-macroglobulin, human, from blood plasma; 720 kDa homotetramer of four 180 kDa subunits, paired by disulfide bonds into dimers; Storage changes the conformation (native, transformed, dimers, higher molecular weight species); also called α2M; native α2M; source: purified from human blood plasma (Zn-charged HiTrap chelating column, Sephacryl S-300 gel filtration)
Consider B1, for which, in data set [1], the binding result is reported as “binds”. Also, in the data set with Creatine phosphokinase, the “decrease in turbidity (absorbance at 595 nm) of CPK (5 μM) at 43°C over 8 hrs with α2M at a molar ratio of α2M-to-CPK of 1:15; α2M rapidly frozen in liquid nitrogen and stored at -20°C for 1 month” value is ~50%.

Values taken from PMC4477937, “Alpha-2-Macroglobulin Is Acutely Sensitive to Freezing and Lyophilization: Implications for Structural and Functional Studies” (PLoS ONE, 2015).
